Results: IntAct's records for PubMed 33053355

B1: GRB10-interacting GYF protein 2 (Homo sapiens), Q6Y7W6-1 (parent)
chain: MAAETQTLNFGPEWLRALSSGGSITSPPLSPALPKYKLADYRYGREEMLALFLKDNKIPSDLLDKEFLPILQEEPLPPLALVPFTEEEQRNFSMSVNSAAVLRLTGRGGGGTVVGAPRGRSSSRGRGRGRGECGFYQRSFDEVEGVFGRGGGREMHRSQSWEERGDRRFEKPGRKDVGRPNFEEGGPTSVGRKHEFIRSESENWRIFREEQNGEDEDGGWRLAGSRRDGERWRPHSPDGPRSAGWREHMERRRRFEFDFRDRDDERGYRRVRSGSGSIDDDRDSLPEWCLEDAEEEMGTFDSSGAFLSLKKVQKEPIPEEQEMDFRPVDEGEECSDSEGSHNEEAKEPDKTNKKEGEKTDRVGVEASEETPQTSSSSARPGTPSDHQSQEASQFERKDEPKTEQTEKAEEETRMENSLPAKVPSRGDEMVADVQQPLSQIPSDTASPLLILPPPVPNPSPTLRPVETPVVGAPGMGSVSTEPDDEEGLKHLEQQAEKMVAYLQDSALDDERLASKLQEHRAKGVSIPLMHEAMQKWYYKDPQGEIQGPFNNQEMAEWFQAGYFTMSLLVKRACDESFQPLGDIMKMWGRVPFSPGPAPPPHMGELDQERLTRQQELTALYQMQHLQYQQFLIQQQYAQVLAQQQKAALSSQQQQQLALLLQQFQTLKMRISDQNIIPSVTRSVSVPDTGSIWELQPTASQPTVWEGGSVWDLPLDTTTPGPALEQLQQLEKAKAAKLEQERREAEMRAKREEEERKRQEELRRQQEEILRRQQEEERKRREEEELARRKQEEALRRQREQEIALRRQREEEERQQQEEALRRLEERRREEEERRKQEELLRKQEEEAAKWAREEEEAQRRLEENRLRMEEEAARLRHEEEERKRKELEVQRQKELMRQRQQQQEALRRLQQQQQQQQLAQMKLPSSSTWGQQSNTTACQSQATLSLAEIQKLEEERERQLREEQRRQQRELMKALQQQQQQQQQKLSGWGNVSKPSGTTKSLLEIQQEEARQMQKQQQQQQQHQQPNRARNNTHSNLHTSIGNSVWGSINTGPPNQWASDLVSSIWSNADTKNSNMGFWDDAVKEVGPRNSTNKNKNNASLSKSVGVSNRQNKKVEEEEKLLKLFQGVNKAQDGFTQWCEQMLHALNTANNLDVPTFVSFLKEVESPYEVHDYIRAYLGDTSEAKEFAKQFLERRAKQKANQQRQQQQLPQQQQQQPPQQPPQQPQQQDSVWGMNHSTLHSVFQTNQSNNQQSNFEAVQSGKKKKKQKMVRADPSLLGFSVNASSERLNMGEIETLDDY
partner: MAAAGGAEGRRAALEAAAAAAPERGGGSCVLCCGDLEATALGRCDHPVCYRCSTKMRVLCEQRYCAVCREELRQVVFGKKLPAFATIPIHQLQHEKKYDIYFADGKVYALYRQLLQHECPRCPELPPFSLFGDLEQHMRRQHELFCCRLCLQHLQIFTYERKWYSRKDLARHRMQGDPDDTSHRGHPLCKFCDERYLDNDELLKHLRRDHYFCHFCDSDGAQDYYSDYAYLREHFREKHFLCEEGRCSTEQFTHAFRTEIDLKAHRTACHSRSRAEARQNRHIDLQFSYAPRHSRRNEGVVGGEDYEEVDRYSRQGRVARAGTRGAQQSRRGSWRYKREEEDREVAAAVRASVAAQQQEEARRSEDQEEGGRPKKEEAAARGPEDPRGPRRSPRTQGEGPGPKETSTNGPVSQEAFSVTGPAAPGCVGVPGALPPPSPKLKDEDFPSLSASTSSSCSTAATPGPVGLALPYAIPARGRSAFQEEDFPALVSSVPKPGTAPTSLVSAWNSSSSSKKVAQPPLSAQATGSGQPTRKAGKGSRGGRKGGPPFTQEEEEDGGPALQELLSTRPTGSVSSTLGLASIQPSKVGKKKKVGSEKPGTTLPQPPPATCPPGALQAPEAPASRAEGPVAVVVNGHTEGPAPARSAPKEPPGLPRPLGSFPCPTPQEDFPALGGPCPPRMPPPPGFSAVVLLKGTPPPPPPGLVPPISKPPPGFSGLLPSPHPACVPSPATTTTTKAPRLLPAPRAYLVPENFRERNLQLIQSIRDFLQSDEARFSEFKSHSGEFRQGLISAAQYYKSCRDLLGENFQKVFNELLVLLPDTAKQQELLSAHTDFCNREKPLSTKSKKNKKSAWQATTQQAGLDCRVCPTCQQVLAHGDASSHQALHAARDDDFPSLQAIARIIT
B2: GRB10-interacting GYF protein 2 (Homo sapiens), Q6Y7W6-1 (parent)
chain: B1 chain
B3: GRB10-interacting GYF protein 1 (Homo sapiens), O75420 (parent)
chain: MAAETLNFGPEWLRALSGGGSVASPPPSPAMPKYKLADYRYGREEMLALYVKENKVPEELQDKEFAAVLQDEPLQPLALEPLTEEEQRNFSLSVNSVAVLRLMGKGAGPPLAGTSRGRGSTRSRGRGRGDSCFYQRSIEEGDGAFGRSPREIQRSQSWDDRGERRFEKSARRDGARCGFEEGGAGPRKEHARSDSENWRSLREEQEEEEEGSWRLGAGPRRDGDRWRSASPDGGPRSAGWREHGERRRKFEFDLRGDRGGCGEEEGRGGGGSSHLRRCRAPEGFEEDKDGLPEWCLDDEDEEMGTFDASGAFLPLKKGPKEPIPEEQELDFQGLEEEEEPSEGLEEEGPEAGGKELTPLPPQEEKSSSPSPLPTLGPLWGTNGDGDETAEKEPPAAEDDIRGIQLSPGVGSSAGPPGDLEDDEGLKHLQQEAEKLVASLQDSSLEEEQFTAAMQTQGLRHSAAATALPLSHGAARKWFYKDPQGEIQGPFTTQEMAEWFQAGYFSMSLLVKRGCDEGFQPLGEVIKMWGRVPFAPGPSPPPLLGNMDQERLKKQQELAAAALYQQLQHQQFLQLVSSRQLPQCALREKAALGDLTPPPPPPPQQQQQQLTAFLQQLQALKPPRGGDQNLLPTMSRSLSVPDSGRLWDVHTSASSQSGGEASLWDIPINSSTQGPILEQLQLQHKFQERREVELRAKREEEERKRREEKRRQQQQEEQKRRQEEEELFRRKHVRQQELLLKLLQQQQAVPVPPAPSSPPPLWAGLAKQGLSMKTLLELQLEGERQLHKQPPPREPARAQAPNHRVQLGGLGTAPLNQWVSEAGPLWGGPDKSGGGSSGLGLWEDTPKSGGSLVRGLGLKNSRSSPSLSDSYSHLSGRPIRKKTEEEEKLLKLLQGIPRPQDGFTQWCEQMLHTLSATGSLDVPMAVAILKEVESPYDVHDYIRSCLGDTLEAKEFAKQFLERRAKQKASQQRQQQQEAWLSSASLQTAFQANHSTKLGPGEGSKAKRRALMLHSDPSILGYSLHGSSGEIESVDDY
partner: B1 partner

Variants of: B1
Details: with zn598_human ZNF598, Q86UK7

Row | effect of a mutation on the interaction | Variant
1 | disrupting interaction strength | Y538A;F549A;W557A;F563A

Variants of: B2
Details: with EIF4E2, O60573-1
Sequence of EIF4E2, O60573-1 (O60573 whole entry): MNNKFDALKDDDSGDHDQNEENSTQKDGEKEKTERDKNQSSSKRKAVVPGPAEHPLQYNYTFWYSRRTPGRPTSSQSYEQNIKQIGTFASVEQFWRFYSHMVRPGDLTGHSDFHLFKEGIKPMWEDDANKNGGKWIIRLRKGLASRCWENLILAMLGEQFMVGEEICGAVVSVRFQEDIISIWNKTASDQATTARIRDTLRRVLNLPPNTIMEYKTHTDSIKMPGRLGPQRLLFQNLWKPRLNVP

Row | effect of a mutation on the interaction | Variant
2 | with no effect | W288A;F300A;F306A
3 | disrupting interaction strength | Y41A;Y43A;M48A;L49A
4 | with no effect | Y538A;F549A;W557A;F563A

Variants of: B2
Details: with rl22l_human RPL22L1, Q6P5R6

Row | effect of a mutation on the interaction | Variant
5 | with no effect | Y538A;F549A;W557A;F563A

Variants of: B3
Details: with zn598_human ZNF598, Q86UK7

Row | effect of a mutation on the interaction | Variant
6 | disrupting interaction strength | Y479A;F490A;W498A;F504A
